Patent US8461305B2, “L-fucose α1→6 specific lectin” (J-Oil Mills, Inc., priority 2008, dated 2013)

B1: Lens culinaris agglutinin (protein)
chain 1: TETTSFSITKFSPDQKNLIFQGDGYTTKGKLTLTKAVKSTVGRALYSTPIHIWDRDTGNVANFVTSFTFVIDAPSSYNVADEFTFFIAPVDTKPQTGGGYLGVFNSKEYDKTSQTVAVEFDTFYNAAWDPSNKERHIGIDVNSIKSVNTKSWNLQNGERANVVIAFNAATNVLTVTLTYP
chain 2: VTSYTLNEVVPLKDVVPEWVRIGFSATTGAEFAAHEVHSWSFHSELGGTSSS
B2: Pisum sativum agglutinin (protein)
chain: TETTSFLITKFSPDQQNLIFQGDGYTTKEKLTLTKAVKNTVGRALYSSPIHIWDRETGNVANFVTSFTFVINAPNSYNVADGFTFFIAPVDTKPQTGGGYLGVFNSAEYDKTTQTVAVEFDTFYNAAWDPSNRDRHIGIDVNSIKSVNTKSWKLQNGEEANVVIAFNAATNVLTVSLTYPNSLEEENVTSYTLSDVVSLKDVVPEWVRIGFSATTGAEYAAHEVLSWSFHSELSGTSSSKQAADA

What was measured:
[1] = hemagglutinating inhibition test with sugars (sugar binding specificity); format: cell-based
Description: (§1) The sugar binding specificity of lectin also can be confirmed by using erythrocytes that can be specifically agglutinated by the lectin to investigate the sugar type that may inhibit the agglutination of the erythrocytes and the concentration thereof.
(§2) Various monosaccharides, oligosaccharides, and polysaccharides shown in Table 2 and glycoproteins shown in Table 3 were subjected to hemagglutinating inhibition test to evaluate PTL of Example 1 and the SRL of Example 2 with regard to the sugar binding specificity.
(§3) On a 96 well U-bottom microtiter plate, double dilution series of 10 μl of monosaccharide, oligosaccharide, polysaccharide, and glycoprotein solutions were prepared. Then, lectin solution adjusted in advance to have titer 4 was added in an amount of 10 μl to the respective wells. Then, the plate was subjected to a still-standing at a room temperature for one hour for sensitization. Then, 10 μl of 4%-red blood cell suspension was added to the respective wells and the plate was further subjected to a still-standing at a room temperature for one hour. […] The lowest concentration showing the inhibition was assumed as the minimum inhibition concentration. The lower the minimum inhibition concentration is, the higher the specificity to lectin is.
(§4) For comparison, the sugar binding specificity was evaluated using the following commercially-available lectins: Comparison Example 1: AAL (SEIKAGAKU BIOBUSINESS CORPORATION—J-OIL MILLS, Inc.), Comparison Example 2: AOL (TOKYO CHEMICAL INDUSTRY CO., LTD.—Gekkeikan Sake Company, Ltd.), Comparison Example 3: LCA (SEIKAGAKU BIOBUSINESS CORPORATION—J-OIL MILLS, Inc.), and Comparison Example 4: PSA (SEIKAGAKU BIOBUSINESS CORPORATION—J-OIL MILLS, Inc.).

glycoproteins = assay: hemagglutinating inhibition test with glycoproteins (sugar binding specificity); format: cell-based
Description: as §1, §2, §3, §4

[2] = inhibitor: N-Acetylneuraminic acid
[3] = inhibitor: N-acetylgalactosamine
[4] = inhibitor: N-glycolylneuraminic acid
[5] = inhibitor: Bovine blood serum albumin
[6] = inhibitor: Human immune globulin A
[7] = inhibitor: Human immune globulin G
[8] = inhibitor: α1-acidic glycoprotein

| Molecule | minimum inhibition concentration of hemagglutination ([1]; inhibitor: Fructose) [mM] | minimum inhibition concentration of hemagglutination ([1]; inhibitor: Galactose) [mM] | minimum inhibition concentration of hemagglutination ([1]; inhibitor: Glucose) [mM] | minimum inhibition concentration of hemagglutination ([1]; inhibitor: L-fucose) [mM] | minimum inhibition concentration of hemagglutination ([1]; inhibitor: Lactose) [mM] | minimum inhibition concentration of hemagglutination ([1]; inhibitor: Maltose) [mM] | minimum inhibition concentration of hemagglutination ([1]; inhibitor: Mannose) [mM] | minimum inhibition concentration of hemagglutination ([1]; inhibitor: Melibiose) [mM] | minimum inhibition concentration of hemagglutination ([1]; inhibitor: Metyl α-mannoside) [mM] | minimum inhibition concentration of hemagglutination [1, 2] [mM] | minimum inhibition concentration of hemagglutination [1, 3] [mM] | minimum inhibition concentration of hemagglutination ([1]; inhibitor: N-acetylglucosamine) [mM] | minimum inhibition concentration of hemagglutination [1, 4] [mM] | minimum inhibition concentration of hemagglutination ([1]; inhibitor: Raffinose) [mM] | minimum inhibition concentration of hemagglutination ([1]; inhibitor: Rhamnose) [mM] | minimum inhibition concentration of hemagglutination ([1]; inhibitor: Serial lactose) [mM] | minimum inhibition concentration of hemagglutination ([1]; inhibitor: Sucrose) [mM] | minimum inhibition concentration of hemagglutination ([1]; inhibitor: Xylose) [mM] | minimum inhibition concentration of hemagglutination (glycoproteins; inhibitor: Asialofetuin) [μl/ml] | minimum inhibition concentration of hemagglutination (glycoproteins; inhibitor: Asialomucin (pig)) [μl/ml] | also measured |
| --- | --- | --- | --- | --- | --- | --- | --- | --- | --- | --- | --- | --- | --- | --- | --- | --- | --- | --- | --- | --- | --- |
| B1 | >100 | >100 | >100 | >100 | >6 | 100 | 50 | >100 | 50 | >100 | >100 | >100 | >100 | >100 | >100 | >6 | >100 | >100 | 250 | >250 | minimum inhibition concentration of hemagglutination (glycoproteins; [5]): >250 μl/ml; minimum inhibition concentration of hemagglutination (glycoproteins; inhibitor: Casein): >250 μl/ml; minimum inhibition concentration of hemagglutination (glycoproteins; inhibitor: Fetuin): >250 μl/ml; minimum inhibition concentration of hemagglutination (glycoproteins; [6]): >250 μl/ml; minimum inhibition concentration of hemagglutination (glycoproteins; [7]): >250 μl/ml; minimum inhibition concentration of hemagglutination (glycoproteins; inhibitor: Lactoferrin): >250 μl/ml; minimum inhibition concentration of hemagglutination (glycoproteins; inhibitor: Mucin (bovine)): >250 μl/ml; minimum inhibition concentration of hemagglutination (glycoproteins; inhibitor: Mucin (pig)): >250 μl/ml; minimum inhibition concentration of hemagglutination (glycoproteins; inhibitor: Ribonuclease): >250 μl/ml; minimum inhibition concentration of hemagglutination (glycoproteins; inhibitor: Thyroglobulin): 62.5 μl/ml; minimum inhibition concentration of hemagglutination (glycoproteins; inhibitor: Transferrin): >250 μl/ml; minimum inhibition concentration of hemagglutination (glycoproteins; [8]): >250 μl/ml |
| B2 | >100 | >100 | >100 | >100 | >6 | >100 | 50 | >100 | 50 | >100 | >100 | >100 | >100 | >100 | >100 | >6 | >100 | >100 | >250 | >250 | minimum inhibition concentration of hemagglutination (glycoproteins; [5]): >250 μl/ml; minimum inhibition concentration of hemagglutination (glycoproteins; inhibitor: Casein): >250 μl/ml; minimum inhibition concentration of hemagglutination (glycoproteins; inhibitor: Fetuin): >250 μl/ml; minimum inhibition concentration of hemagglutination (glycoproteins; [6]): >250 μl/ml; minimum inhibition concentration of hemagglutination (glycoproteins; [7]): >250 μl/ml; minimum inhibition concentration of hemagglutination (glycoproteins; inhibitor: Lactoferrin): >250 μl/ml; minimum inhibition concentration of hemagglutination (glycoproteins; inhibitor: Mucin (bovine)): >250 μl/ml; minimum inhibition concentration of hemagglutination (glycoproteins; inhibitor: Mucin (pig)): >250 μl/ml; minimum inhibition concentration of hemagglutination (glycoproteins; inhibitor: Ribonuclease): >250 μl/ml; minimum inhibition concentration of hemagglutination (glycoproteins; inhibitor: Thyroglobulin): 62.5 μl/ml; minimum inhibition concentration of hemagglutination (glycoproteins; inhibitor: Transferrin): >250 μl/ml; minimum inhibition concentration of hemagglutination (glycoproteins; [8]): >250 μl/ml |
